Key:
[1] = target: T1, GST-SRSF1 (human, UniProt Q07955 1-248); assay: competition; EMSA vs IRD-800 miR-1246; did not alter binding; EMSA: 40 mM Tris pH 8.0, 30 mM KCl, 1 mM MgCl2, 0.001% NP40, 1 mM DTT, 5% glycerol, room temperature 40 min, 4% native gel; conditions: protein: recombinant; tags: N-terminal GST (pGEX6P); no self-complementarity
[2] = target: T1, GST-SRSF1; assay: competition; EMSA vs IRD-800 miR-1246; concentration-dependent; dissociation constant only in Fig. 6f; EMSA: 40 mM Tris pH 8.0, 30 mM KCl, 1 mM MgCl2, 0.001% NP40, 1 mM DTT, 5% glycerol, room temperature 40 min, 4% native gel; conditions: protein: recombinant; tags: N-terminal GST (pGEX6P); no self-complementarity

T1 sequence (Q07955 whole entry): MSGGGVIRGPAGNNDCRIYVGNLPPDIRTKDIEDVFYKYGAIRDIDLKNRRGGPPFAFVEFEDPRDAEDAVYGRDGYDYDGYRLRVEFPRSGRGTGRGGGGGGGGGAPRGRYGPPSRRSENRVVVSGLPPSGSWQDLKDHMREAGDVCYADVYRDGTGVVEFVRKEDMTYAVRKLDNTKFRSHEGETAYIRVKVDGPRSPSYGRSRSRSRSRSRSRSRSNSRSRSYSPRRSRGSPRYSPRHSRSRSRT

| Binder | binding result [1] | binding result [2] |
| --- | --- | --- |
| UUGGACUAGGACUAGGAU (ssRNA) [Decoy mimic 1 (D1)] | no binding |  |
| AGGAAGGAAGGAAGGA (ssRNA) [Decoy mimic 2 (D2)] |  | binds |
